Test [1] deals with AMUC_1438 CAT construct (residues 41-427) (Akkermansia muciniphila) (UniProt B2UKY7).
Test [2] addresses AMUC_1438 FL construct (Akkermansia muciniphila) (UniProt B2UKY7).

KM of hydrolysis of the IgA1FRET O-glycopeptide (FRET dequenching, steady-state kinetics, Michaelis-Menten fit; 1 μM enzyme, 0 to 1000 μM substrate, 20 mM Tris-HCl pH 7.0, 100 μM zinc chloride) data for 1 molecule are collected here from article PMC9513282.

HiLyteFluor 488 = N-terminal fluorophore; QXL 520 = dark quencher

As to {HiLyteFluor 488}-TPSPSTPPTK-{QXL 520} (not fully specified (residue 5); printed as TPSP**S**TPPTK) [IgA1FRET, custom FRET O-glycopeptide substrate based on the IgA1 hinge region], the KM of hydrolysis of the IgA1FRET O-glycopeptide (FRET dequenching, steady-state kinetics, Michaelis-Menten fit; 1 μM enzyme, 0 to 1000 μM substrate, 20 mM Tris-HCl pH 7.0, 100 μM zinc chloride) in test [1] is 300 μM; in test [2], 122 μM.
